Measured values as given in patent US20260168983A1, “YaxAB NANOPORE, NANOPORE SYSTEM COMPRISING SAME AND APPLICATIONS THEREOF” (KOREA RESEARCH INSTITUTE OF BIOSCIENCE AND BIOTECHNOLOGY, priority 2022, published 2026).

Biological target: Bcl-xL protein, Q07817
Experiment: YaxAB nanopore; Bcl-xL with a mix of four competing peptides at 1:15

Bcl-xL protein, Q07817, sequence (Q07817 1-209): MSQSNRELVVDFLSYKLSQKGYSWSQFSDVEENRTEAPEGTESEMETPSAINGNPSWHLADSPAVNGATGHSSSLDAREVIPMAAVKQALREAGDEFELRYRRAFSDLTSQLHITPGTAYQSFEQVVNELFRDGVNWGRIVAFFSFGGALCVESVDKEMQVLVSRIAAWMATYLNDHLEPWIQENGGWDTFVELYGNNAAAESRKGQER

GQVGRQAAIIGDDINR (modifications not checked) [Bak_BH3_L78A, Q16611 72-87]
signal frequency of the Bcl-xL-peptide complex: 3%

GQVGRQLAIIGDDANR (modifications not checked) [Bak_BH3_I85A, Q16611 72-87]
signal frequency of the Bcl-xL-peptide complex: 7%
